18 sequences from a protein production outcome set (Wang et al. 2014) can be followed below.
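Also: failed if final PepcDB status was selected cloned or expressed and not failed if soluble or beyond.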

The nature of the series: label from the status in PepcDB records.
On to “MRYLLIILAFWLPLQSHAVEFDENTRFLPLGRAVQVFEDPTGTATIDSVSSPAGAQAFRPAPAGTFNAGYSRSAFWLKVELSYRPADADIHNDWLLELAYPPMDRVDFYAPDANGRPTLTWQTGDMLPFASRQFAQNNYLFQLELPPGQTRTLYVRISSEGSVQAPLNLWSTHAYLEAQPTKIYVFGLIYGVLLGMLVYNLFIYLSVREPDYLYYLLYVAAFGLYQMSINGVAIEYLWPDSPWWANASTPFLMALATLFACQFTRSFLGTVRLGRWLDRSLLTLIGAAVLVMCIALFLSYGPALRAATQLVMAGALTIYLAGIVAVVKGERVGRYFVLAWSVFMIGGLVFGLMLMGYMPNTFLTMYASHIGTLLEMAFLSMALADRINHARYQQEQTLLAYGKDLERLNQQLATSNRLKDEFLATLTHELRTPMNGVIGSLEVMQTLDMDDEVEMYQQTAASSARDMMSMINGILTLTELQAGVLYAECSAFAPVDLVDRLRERFSGAAQSKGLTLTLDLDDKLPPGIRGDAGKLYQCLECLVDNAIKFTRKGAVQVRFSGQPQDLERMYLRVEVMDSGIGFSHLDEALLYQHFLQVDGSMTREYGGLGIGLAICRKLVELQGGELSHRSEPGKGSCFTLSIPMLMAVPGAVRRAPEAKAQWGHVSRS”, for which the protein production result is given as “failed”.
The same measure for “MIVAFENNVVCSDEKVRDYLLAHHADLKEDQDEDALCLVRLHKEEDIDGTDRVDLAGWREISRELYWTGEQMECNYSIIRFSRKTTSLQMSVVLSTCNQLEWLEKVLWGYEAQDTKNFELIIADDGSRKETYDMLQRITPQLSFQVKHVWHEDKGFRKCDILNKGILAAQADYLLFSDGDCIPRKDFVSTHLCLRRKGRFLSGGYHKLSMDLSKDITKDDILSGRCFDLQWMRGKGMPASFKNNKLTATGFKRWALNTFTPTKASWNGHNASGWLSDILAVNGFDERMQYGGQDREFGERLENYGIHGMQIRYSTVCLHLDHARGYKTKDSIQKNRNIRKHTRGAKVQWASLGIVKDELRGQSVKVNSYYDRYTREEEKLTSYKEKGGFYRHIYSLPCRWRRAKYHDKVVRAYQQDTDAPALSNHSGVIVSLTTFPPRISQLHLMLKSILWQTCPPEKIIVWLSEQEFPGRLNDLPEELKRLMAKGIAFRFVSENFRSHKKYHYVFREYPDSKVITVDDDLIYPRNTVERLLSLSYQYPDTVCGNVIRKIHMDGNSFSVYRKWTKVFTMPVNSSLQNVAIGCGGIYYPPHWYGEELFDWKIISEHCPSADDLWLKANELKRRVKVTGGGEFYPRPIELPQTQNNSLQKKNNGKTNLNDKQWKSLNELWKLDELYCINGK”: “failed”; for “MKEEIVNERQCETEDEKIDIQQLLFKYIIHWPWFVGAVLVCLIGAWIYLRMATPVYNISATVLIKDDKKGGNTGSMVGLEELGLSGLISSSQNIDNELEVLRSKTLVKEVINLLNLYVSYTDEDGFPSKNMYKTSPVLVSLTPQEAEKLTDPMVVEMALYGEGGLEVNVTVGDKEYQKHFEKLPAVFPMDEGTLAFFQSPDSLSLKKDTMEASSNIRHITAKIKSPMKVARAYCENLKIEPTSKTTSVAVISLKNSSLQRGQDFINQLLEMYNRNTNNDKNEIAQKTAEFIDERINIISKELGSTEANLENFKRNAGITDLTSEAQIALTGNAEYEKKRVENRTQISLIEDLRKYIRGNEYEVLPGNIGLQDPGLVATIERYNEMLVERKRLLRTSTENNPTIINLDTSIRAMKSNVQATLDGSLKGLLITKADLEREASRFSRRISDAPGQERQFVSIARQQEIKAGLYLMLLQKREENAIALAATANNAKIIDEAIADDIPVSPKRRMIYLIALVLGIGIPVGIIYLIGLTKFKLEGRADVEKLTTIPIVGDIPLTDEKNEKDGSIAVFENQNNLMSETFRNIRTNLQFMLQNDKKVILVTSTVSGEGKSFISANLAISLSLLGKKVVIVGLDIRKPGLNKVFRLSTKEKGITLYLANPETDLMSLVQPSDINQNLYILPGGTVPPNPTELLARDGLDKAIEILKKNFDYVILDTAPVGMVTDTLLIGRVADLSVYVCRADYTHKVEYTLINELAEEKKLPNLCTVINGVDLKRRKYGYYYGYGKYGKYYGYGKRYGYGYGYGQEKGAKS”: “failed”; for “MYEDNAACIAQLKDGYIKGDRTKHILPKFFFTHDLQKSGDVRVLQIRSNDNLSDLFTKALPTATFKKLVYRIGLRRLKDLDEYTHKGE”: “failed”.
As for “MKDSDKEKENGKMGCWSIEHVEQYLGTDELPKNDLITYLQKNADAAFLRHWKLTGTNKSIRKNRNCSQLIAAYKDFCEHGTKSGLNQG”, the protein production entry was “not failed”.
Take “MFKKGVVPSQGLRIIIVGCGKVGRTLVEQLGKEGHDITIIDKNRERISQVSNIYDVMGIAGNGASYKILQEAGIDDADLIIAVTGSDELNLLCCTIATQVGNCAAIARVRTPEYSQEAKYLRDKLGLALIINPELEAAIEMAHILHLPSSLEVTNFAHGQAQLIKYEIPEGSILDGTKLMDLGTRHHANILIGAVERDDEVTIPSGDFVLRKGDKLSFVGERRHTKEFFSHIGVNTHSVKNTLIIGGGKAAYYLAKQLISRGIKVKIIENSFERCEELSILLPDAVIINGDGTEQALLKEEGIETCQSFVPLTGIDEENIMLTLYAKQVSNAKVITKLNRITFTNVINSLDLGSVISPKYITSEAIIAYVRAKKNSMNCNIETLYHMYDSRVEAIEFFVSENSNVTDIPLRDLKLKKHLLICFINRNGKIIIPTGNDCIQKNDTVMIITTNTGFTNLQDIME”: the protein production entry is listed as “failed”.
The same measure for “MSAFDFNFQPSINQQDVLDFTDLRFIGKYENIVFLDSNVVSKNRISTYFIKCHHLKENLRKAKLENSLENRLKHYSKYKLLIIDEIGYLPIGSEAAKIFFQINRFKVLEHHHHHH”: “not failed”; for “MDYSQYHVEQTQEITELVTRTFSKSEGVDEGTLIGALIKDLFATTDSDDMFIFVAKDNGKIVGSIFFTRLTFEIDTTAFLLCPVVIDTEYQNKGVGQTLINHGLEVLKQEGVELVFTYGEPKFYERVGFEIVSEEQFKSPIPLSYLYSWLAQSLNDEVLTYIPGRSKCVAALNNLRLW”: “failed”.
The same measure for “AIVHEMLKDTHPQYAYRSGMSAQEFTQWQDGVRAAMVEIMKFPEIKRQPSPVCVKTEKKEGYILEKWEFYPFPKSVSTFLVLKPEHLKGAVPGVLCIPGSGRTKEGLVGEPGICDKLTEDYNNPKVSMALNMVKEGYVAVAVDNAAAGEASDLECYDKGWNYDYDVVSRFLLELGWSWLGYTSYLDMQVLNWMKAQSYIRKDRIVISGFSLGTEPMMVLGVLDKDIYAFVYNDFLCQTQERAVVMTKPDKENRRPFPNSIRHLIPGYWRYFNFPDVVASLAPRPIIFTEGGLDRDFRLVQSAYAASGKPENAEFHHYPKFADKAVRKDVEHLDEGLDSKTYFEAVNVDPPSHYFKNELVIPWLRKVLK”: “not failed”.
The result for “MVSANREMAVYCFDTLVSHYNNEETPPPAFEEANHPLFVTWKKIVNGGEPRLRGCIGTLEARRLISGFKDYALTSALRDRRFPPIQAKELPSLQCTVSVLTDYEDAEDYLDWEVGKHGIIIEFTEPETNTKRSATYLPEVPAHEGWTKIEAIDSLVRKAGYNGVITEAVRRRINLTRYQSTLFSMHYSEYLSYVKATRGVVGPVINGINKHAFA” reads “failed”; that for “MKTRCGCKKIASYTVVKLILNRLDVAMNSTIRRWFASAGAMRRVFSTFAPYLGAGIKVTHIADDFSSATVEMRQHWYNTNYVGTHFGGSLYSMVDPMYMLLLMRSLGNDYIVWDKSASIDFIRPGKGVVKAHFELTDARLDEIREATADGDKYLPEWYIDIVDEAGTVVSRVHKVLYVRRKPAE”, “failed”.
For the sequence “MSGEGNLGKDHEEENEAPLPGFRFHPTDEELLGYYLRRKVENKTIKLELIKQIDIYKYDPWDLPRVSSVGEKEWYFFCMRGRKYRNSVRPNRVTGSGFWKATGIDKPVYSNLDCVGLKKSLVYYLGSAGKGTKTDWMMHEFRLPSTTKTDSPAQQAEVWTLCRIFKRVTSQRNPTILPPNRKPVITLTDTCSKTSSLDSDHTSHRTVDSMSHEPPLPQPQNPYWNQHIVGFNQPTYTGNDNNLLMSFWNGNGGDFIGDSASWDELRSVIDGNTKP”, the protein production result was “failed”.
The same measure for “MSGARNVEQWQDFIGSCLDFRPADGVFRIARDMFTEPELFDLEMELIFEKNWIYACHESELPNNHDFITMRAGRQPMIITRDGEGRLNALVNACQHRGTTLTRVGKGNQSTFTCPFHAWCYKSDGRLVKVKAPGEYDEGFDKATRGLKKARIESYKGFVFISLDVAADNSLEDFLGDARIFFDMMVAQSPDGELEVLPGKSAYTYDGNWKLQNENGLDGYHVSTVHYNYVATVQHRQQVNADSGAGSSATLDYSKLGAGDASTDDGWFAFENGHSVLFSEMPNPAVRSGYASIMPRLVAEHGQAKAEWMMHRLRNLNIYPSLFFLDQISSQLRIIRPIAWNKTEIISQCIGVKGESDADRENRIRQFEDFFNVSGMGTPDDLVEFREAQRGFQGRLERWSDISRGRQHWVSGPTANSENLGIQPAMTGTEITHEGLYVNQHRNWQKFLLDGLQRRPLKLREV”: “failed”; for “MAAAAATAVGPGAGSAGVAGPGGAGPCATVSVFPGARLLTIGDANGEIQRHAEQQALRLEVRAGPDAAGIALYSHEDVCVFKCSVSRETECSRVGRQSFIITLGCNSVLIQFATPHDFCSFYNILKTCRGHTLERSVFSERTEESSAVQYFQFYGYLSQQQNMMQDYVRTGTYQRAILQNHTDFKDKIVLDVGCGSGILSFFAAQAGARKIYAVEASTMAQHAEVLVKSNNLTDRIVVIPGKVEEVSLPEQVDIIISEPMGYMLFNERMLESYLHAKKYLKPSGNMFPTIGDVHLAPFTDEQLYMEQFTKANFWYQPSFHGVDLSALRGAAVDEYFRQPVVDTFDIRILMAKSVKYTVNFLEAKEGDLHRIEIPFKFHMLHSGLVHGLAFWFDVAFIGSIMTVWLSTAPTEPLTHWYQVRCLFQSPLFAKAGDTLSGTCLLIANKRQSYDISIVAQVDQTGSKSSNLLDLKNPFFRYTGTTPSPPPGSHYTSPSENMWNTGSTYNLSSGVAVAGMPTAYDLSSVIAGGSSVGHNNLIPLANTGIVNHTHSRMGSIMSTGIVQGNRVAGPWAGDLPPGLRTRSSYQWGPGRLRGHAGSSVPMTCPTGSSGAQGGGGSSSAHYAVNNQFTMGGPAISMASPMSIPTNTMHYGS”: “failed”.
“PVRLEGDQVAAAEALVAAVAADSYSTTLLKGVTGSGKTEVYLEAVAECLRRGRQALVLLPEIALTSEFLARVEARFGARPAEWHSGVTATERRRLWRMVSEGQAQFVAGARSALFLPFRDLGLVVVDEEHDTSYKQEEGALYNARDMAVLRASICGCPAVLASATP”: the protein production entry is given as “failed”.
Take “VGGFTWDLSANLSSVANKIISLPYNGIENNRVGGYEVAVGKGTNATKWIAGRQEGGKLGEMVAYKQNHIFKSWDDVKEHANMMIDEVANLYGPGLASEYAGKEGWKPIEPGDVCWEDINGDNKINGLDREVVGNIFPKVTGGFSSTLSWKGISLYARFDYALGHTLYNDLAARTLGQYQGAFNIITEVKDMWSEDNPNSDLPAFYYADQLAKKNITRSNNASASRHNNSSRLYEKADYLALRELTLSWDLPKAWTSKAFIQNASVYVTGQNLFYVTGYTGTSPEPVLTNSDNNENLYGVDQGRYPTPRTVLFGLSVTF”: the protein production result was “failed”.
The result for “MGGIPDITPYPLTYSLGGVIPLSSVLEMLWVEKYRPRSLDDIVDQKHVVERLKQFVKQRNMPHLLFAGPPGTGKTTAAHALAHDLFGENYRQYMLELNASDERGINVIREKVKEFARSRTPPEIPFKIVLLDEADNMTSDAQQALRRLMELYSSVTRFILIANYPSKIIDPIQSRCAFFRFQPLSKQDVIERLRYIAENEGVDYEEEALDAIYEISEGDMRKAINVLQAASYLGKVTVDAVYRVVGMAKPREVREMLATALKGDFTAARSLLRKIMIEYGMSGEDVARQIHRELFSTELKMPEELRVLAADYLGEVHYRLVEGSDDDIQLSAFLAWLTMMSRKLEV” reads “not failed”; that for “MGIRVKRRQHQHLLESLVHSTAKQQGDFTKTAELATELLCQNLAVSLVSIWIFSADQGTQSLVAQFGSMALQDTYRPSLLHTVPRYLNELKNYRHIDAGNTLIDPRLTELVDSYFIPRQILSSLDVGIRINGHLEGVLCIERAQVTHHWHDSEIHLACQMADQLALTLATKHAYLEHHHHHH”, “failed”.
